Results: the RNAGym collection of RNA variant scans (doi:10.7554/elife.80360)

B1: CPEB3 Ribozyme (parent)
chain: GGGGGCCACAGCAGAAGCGUUCACGUCGCGGCCCCUGUCAGAUUCUGGUGAAUCUGCGAAUUCUGCUGU

Variants of: B1
Test: self-cleavage, relative activity (ratio to wild type); higher = more cleavage; co-transcriptional

In order of rising self-cleavage:
1. GGGGGCCACGGCAGAAGCGCUCACGUCGCGGCCCCUGUCAGAUUCUGGUGAAUCUGCGAAUUCUGCUGU  0.115
2. GGGGGCCACGGCAGAAGCGUUCACGUCGCGGCCCCAGUCAGAUUCUGGUGAAUCUGCGAAUUCUGCUGU  0.117
3. GGGGGCCACGGCAGAAGCGGUCACGUCGCGGCCCCUGUCAGAUUCUGGUGAAUCUGCGAAUUCUGCUGU  0.135
4. GGGGGCCACGGCAGAAGCGUUCACGUCGCGGCCCCGGUCAGAUUCUGGUGAAUCUGCGAAUUCUGCUGU  0.155
5. GGGGGCCACUGCAGAAGCGUUGACGUCGCGGCCCCUGUCAGAUUCUGGUGAAUCUGCGAAUUCUGCUGU  0.174
6. GGGGGCCACGGCAGAAGCGUUCACGUCGCGGCCCCUCUCAGAUUCUGGUGAAUCUGCGAAUUCUGCUGU  0.175
7. GGGGGCCACUGCAGAAGGGUUCACGUCGCGGCCCCUGUCAGAUUCUGGUGAAUCUGCGAAUUCUGCUGU  0.182
8. GGGGGCCACUGCAGACGCGUUCACGUCGCGGCCCCUGUCAGAUUCUGGUGAAUCUGCGAAUUCUGCUGU  0.281
9. GGGGGCCACGGCAGAAGCGUUCACGUCGCGGCCCCUGUCAGAUUCUGGUGAAUCUGCGAAUUCUCCUGU  0.288
10. GGGGGCCACGGCAGAAGCGUUCACGUCGCGGCCCCUGUCAGAUUCUGGUGAAUCUGCGAACUCUGCUGU  0.291
11. GGGGGCCACGGCAGAAGCGUUCACGUCGCGGCCCCUGUCAGAUUCUGGUGAAUCUGCGAAUUCAGCUGU  0.33
12. GGGGGCCACGGCAGAAGCGUUCACGUCGCGGCCCCUGUCAGAGUCUGGUGAAUCUGCGAAUUCUGCUGU  0.344
13. GGGGGCCACUGCAGAAGCGUUCACGUCGCGGCCCCUGUCAGAUUCUGGUGAAUCUGCGACUUCUGCUGU  0.384
14. GGGGGCCACGGCAGAAGCGUGCACGUCGCGGCCCCUGUCAGAUUCUGGUGAAUCUGCGAAUUCUGCUGU  0.39
15. GGGGGCCACGGCAGAAGCGUUCACGUCGCGGCCCCUGUCAGAUUCUGGUGAAUCUGCGAAUUCCGCUGU  0.406
16. GGGGGCCACGGCAGAAGCGUUCACGUCGCGGCCCCUGUCAGAUUCUGGUGAAUCCGCGAAUUCUGCUGU  0.407
17. GGGGGCCACGGCAGAAGCGUUCACGUCGCGGCCCCUGUCAGAUUCUGGUGAAUCAGCGAAUUCUGCUGU  0.407
18. GGGGGCCACUGCAGAAGCGUUUACGUCGCGGCCCCUGUCAGAUUCUGGUGAAUCUGCGAAUUCUGCUGU  0.436
19. GGGGGCCACGGCAGAAGCGUUCACGUCGCGGCCCCUGUCAGAUUCUGGUGAAUCUGCGAAUGCUGCUGU  0.448
20. GGGGGCCACGGCAGAAGCGUUCACGUCGCGGCCCCUGUCAGAAUCUGGUGAAUCUGCGAAUUCUGCUGU  0.455
21. GGGGGCCACGGCAGAAGCGUUCACGUCGCGGCCCCUGUCAUAUUCUGGUGAAUCUGCGAAUUCUGCUGU  0.466
22. GGGGGCCACGGCAGAAGCGUUCACGUCGCGGCCCCUGUCAGAUUCUGGUGAAUCUGCGAAGUCUGCUGU  0.468
23. GGGGGCCACGGCAGAAGCGUUCACGUCGCGGCCCCUGUCAGAUUCUGGUGAAUCUCCGAAUUCUGCUGU  0.473
24. GGGGGCCACGGCAGAAGCGUUCACGUCGCGGCCCCUGUCAGAUCCUGGUGAAUCUGCGAAUUCUGCUGU  0.498
25. GGGGGCCACUGCAGAAGCGUUCACGUCGCGGCCCCUGUCCGAUUCUGGUGAAUCUGCGAAUUCUGCUGU  0.516
26. GGGGGCCACGGCAGAAGCGUUCACGUCGCGGCCCCUGUCAGAUUCUGGUGAAUCUUCGAAUUCUGCUGU  0.567
27. GGGGGCCACUGCAGAAGCGUUCAGGUCGCGGCCCCUGUCAGAUUCUGGUGAAUCUGCGAAUUCUGCUGU  0.569
28. GGGGGCCACGGCAGAAGCGUUCACGUCGCGGCCCCUGUCAGAUUCUGGUGAAUCUGCGAAUACUGCUGU  0.578
29. GGGGGCCACUGCAGAAGCGUUCACGUCGCGGCCCCUGUCAGAUUCUGGUGAAUCUGCGAUUUCUGCUGU  0.58
30. GGGGGCCACGGCAGAAGCGUCCACGUCGCGGCCCCUGUCAGAUUCUGGUGAAUCUGCGAAUUCUGCUGU  0.619
31. GGGGGCCACGGCAGAAGCGUUCACGUCGCGGCCCCUGUCAGAUUCUGGUGAAGCUGCGAAUUCUGCUGU  0.646
32. GGGGGCCACGGCAGAAGCGUUCACGUCGCGGCCCCUGUCAGACUCUGGUGAAUCUGCGAAUUCUGCUGU  0.651
33. GGGGGCCACGGCAGAAGCGUUCACGUCGCGGCCCCUGUCAGAUACUGGUGAAUCUGCGAAUUCUGCUGU  0.702
34. GGGGGCCACGGCAGAAGCGUUCACGUCGCGGCCCCUGUCAGAUUCUGGUGAAUCUGCGAAUUCUGCGGU  0.757
35. GGGGGCCACGGCAGAAGCGUUCACGUCGCGGCCCCCGUCAGAUUCUGGUGAAUCUGCGAAUUCUGCUGU  0.761
36. GGGGGCCACUGCAGUAGCGUUCACGUCGCGGCCCCUGUCAGAUUCUGGUGAAUCUGCGAAUUCUGCUGU  0.772
37. GGGGGCCACUGCAGAAGCGUUCACGUCGCGGCCCCUGUCAGAUUCUGGUGAAUCUGCGCAUUCUGCUGU  0.778
38. GGGGGCCACGGCAGAAGCGUUCACGUCGCGGCCCCUGUCAGAUUCUGGUGAAUCUACGAAUUCUGCUGU  0.784
39. GGGGGCCACUGCAGAAGCGUUCAAGUCGCGGCCCCUGUCAGAUUCUGGUGAAUCUGCGAAUUCUGCUGU  0.796
40. GGGGGCCACUGCCGAAGCGUUCACGUCGCGGCCCCUGUCAGAUUCUGGUGAAUCUGCGAAUUCUGCUGU  0.808
41. GGGGGCCACGGCAGAAGCGUUCACGUCGCGGCCCCUGUCAGAUUCUGGUCAAUCUGCGAAUUCUGCUGU  0.818
42. GGGGGCCACGGCAGAAGCGUACACGUCGCGGCCCCUGUCAGAUUCUGGUGAAUCUGCGAAUUCUGCUGU  0.83
43. GGGGGCCACGGCAGAAGCGUUCACGUCGCGGCCCCUGUCAGAUUCUGGUGAAUCUGCGAAUUCUGCAGU  0.847
44. GGGGGCCACUGGAGAAGCGUUCACGUCGCGGCCCCUGUCAGAUUCUGGUGAAUCUGCGAAUUCUGCUGU  0.859
45. GGGGGCCACGGCAGAAGCGUUCACGUCGCGUCCCCUGUCAGAUUCUGGUGAAUCUGCGAAUUCUGCUGU  0.868
46. GGGGGCCACGGCAGAAGCGUUCACGUCGCGGCCCCUGUCAGAUUCUGGUUAAUCUGCGAAUUCUGCUGU  0.87
47. GGGGGCCACUGCAGAAGCGUUCACGUCGCGGCCCCUGUCAGAUUCUGGUGAAUCUGCGUAUUCUGCUGU  0.879
48. GGGGGCCACGGCAGAAGCGUUCACGUCGCGGCCCCUGUCAGAUUCUGGUGAAUCUGCCAAUUCUGCUGU  0.888
49. GGGGGCCACGGCAGAAGCGUUCACGUCGCGGCCCCUGUCAGAUUCUGAUGAAUCUGCGAAUUCUGCUGU  0.898
50. GGGGGCCACUGCAGAAGCGUUCACGUCGCGGCCCCUGUCAGGUUCUGGUGAAUCUGCGAAUUCUGCUGU  0.899
51. GGGGGCCACGGCAGAAGCGUUCACGUCGCGGCCCCUGUCAGAUUCGGGUGAAUCUGCGAAUUCUGCUGU  0.901
52. GGGGGCCACGGCAGAAGCGUUCACGUCGCGGCCCCUGUCAGAUUCUGGGGAAUCUGCGAAUUCUGCUGU  0.907
53. GGGGGCCACGGCAGAAGCGUUCACGUCGCGGCCCCUGUCAGAUUCCGGUGAAUCUGCGAAUUCUGCUGU  0.907
54. GGGGGCCACUGCAGAAGCGUUCACGUCGCGGCCCCUGUCUGAUUCUGGUGAAUCUGCGAAUUCUGCUGU  0.911
55. GGGGGCCACGGCAGAAGCGUUCACGUCGCGGCCCCUGUCAGAUUCUGGUGAAUCUGCGAAUUCUGCUUU  0.917
56. GGGGGCCACGGCAGAAGCGUUCACGUCGCGGCCCCUGUCAGAUUCUCGUGAAUCUGCGAAUUCUGCUGU  0.927
57. GGGGGCCACGGCAGAAGCGUUCACGUCGCGGCCCCUGUCAGAUUCUGGAGAAUCUGCGAAUUCUGCUGU  0.932
58. GGGGGCCACGGCAGAAGCGUUCACGUCGCCGCCCCUGUCAGAUUCUGGUGAAUCUGCGAAUUCUGCUGU  0.94
59. GGGGGCCACGGCAGAAGCGUUCACGUCGCGGCCCCUGUCAGAUUCUGGUGAAUCUGCGAAUUCUGCUCU  0.941
60. GGGGGCCACGGCAGAAGCGUUCACGUCGCGGCCCCUGUCAGAUUCUGGUGAAUCUGCGAAUUCUGCUAU  0.943
61. GGGGGCCACGGCAGAAGCGUUCACGUCGCGACCCCUGUCAGAUUCUGGUGAAUCUGCGAAUUCUGCUGU  0.953
62. GGGGGCCACUGCAGAAGCGUUCACGUCGCGGCCCCUGUCAGAUUCUGGUGCAUCUGCGAAUUCUGCUGU  0.962
63. GGGGGCCACUGCAGAAGCGUUCCCGUCGCGGCCCCUGUCAGAUUCUGGUGAAUCUGCGAAUUCUGCUGU  0.968
64. GGGGGCCACGGCAGAAGCGUUCACGUCGCGGCCCCUGUCAGAUUCUGCUGAAUCUGCGAAUUCUGCUGU  0.968
65. GGGGGCCACGGCAGAAGCGUUCACGUCGCGGCCCCUGUCAGAUUCUGGUGAAUCUGCAAAUUCUGCUGU  0.969
66. GGGGGCCACGGCAGAAGCGUUCACGUCGCGGCCCCUGUCAGAUUCUGGUGAAUCUGCGAAUUCUGCUGG  0.978
67. GGGGGCCACGGCAGAAGCGUUCACGUCGCGGCCCCUGUCAGAUUCUGGUGAAUCUGCGAAUUCUGCUGA  0.981
68. GGGGGCCACUGCAGAAGCGUUCGCGUCGCGGCCCCUGUCAGAUUCUGGUGAAUCUGCGAAUUCUGCUGU  0.983
69. GGGGGCCACGGCAGAAGCGUUCACGUCGCGGCCCCUGUCAGAUUCUAGUGAAUCUGCGAAUUCUGCUGU  0.986
70. GGGGGCCACGGCAGAAGCGUUCACGUCGCGGCCCCUGUCAGAUUCUGGCGAAUCUGCGAAUUCUGCUGU  0.99
71. GGGGGCCACUGCAGAAGCGUUCACGUCGCGGCCCCUGUCAGUUUCUGGUGAAUCUGCGAAUUCUGCUGU  0.999
72. GGGGGCCACUGCAGGAGCGUUCACGUCGCGGCCCCUGUCAGAUUCUGGUGAAUCUGCGAAUUCUGCUGU  0.999
73. GGGGGCCACUGCAGAAGCGUUCACGUCGCGGCCCCUGUCAGAUUCUGGUGACUCUGCGAAUUCUGCUGU  1
74. GGGGGCCACUGCAGAAGCGUUCUCGUCGCGGCCCCUGUCAGAUUCUGGUGAAUCUGCGAAUUCUGCUGU  1
75. GGGGGCCACUGCAGAAGCGUUCACGUCGCGGCCCCUGUCAGAUUCUGGUGAAUCUGCGAAUUCUGCUGU  1
76. GGGGGCCACGGCAGAAGCGUUCACGUCGCGGCCCCUGUCAGAUUCUGUUGAAUCUGCGAAUUCUGCUGU  1
77. GGGGGCCACUGCAGAAGCGUUCACGUCGCGGCCCCUGUCAGAUUCUGGUGAGUCUGCGAAUUCUGCUGU  1.03
78. GGGGGCCACGGCAGAAGCGUUCACGUCGCGGCCCCUGUCAGAUUCUGGUGAAUCUGCGAAUUCUGCUGC  1.06
